These results are taken from patent US20260250402A1 (C O INMAGENE PTE, published 2026).

Where two headings read alike, the source gives them in different places.

Test [1] addresses T1, human Fc-tag IL-7Ra protein (human, UniProt P16871 21-239).
T1 construct: also called human IL-7Ra protein; not shown: Fc tag fused to the N-terminus
T1 sequence: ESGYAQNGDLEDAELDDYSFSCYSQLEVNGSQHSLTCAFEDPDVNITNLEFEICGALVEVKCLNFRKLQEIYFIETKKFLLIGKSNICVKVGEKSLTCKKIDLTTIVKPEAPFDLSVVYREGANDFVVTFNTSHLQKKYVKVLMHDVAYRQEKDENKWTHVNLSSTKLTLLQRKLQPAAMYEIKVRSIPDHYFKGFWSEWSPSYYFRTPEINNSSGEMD
Nature of the test: ELISA, plate coated with human Fc-tag IL-7Ra protein, HRP-labelled secondary antibody, OD 450 (left panel).

Test [2] addresses T2, human IL-7Ra expressed on CHOK1-human IL-7Ra cells (human, UniProt P16871 21-459).
T2 construct: also called human IL-7Ra expressed on cell membrane; CD127
T2 sequence: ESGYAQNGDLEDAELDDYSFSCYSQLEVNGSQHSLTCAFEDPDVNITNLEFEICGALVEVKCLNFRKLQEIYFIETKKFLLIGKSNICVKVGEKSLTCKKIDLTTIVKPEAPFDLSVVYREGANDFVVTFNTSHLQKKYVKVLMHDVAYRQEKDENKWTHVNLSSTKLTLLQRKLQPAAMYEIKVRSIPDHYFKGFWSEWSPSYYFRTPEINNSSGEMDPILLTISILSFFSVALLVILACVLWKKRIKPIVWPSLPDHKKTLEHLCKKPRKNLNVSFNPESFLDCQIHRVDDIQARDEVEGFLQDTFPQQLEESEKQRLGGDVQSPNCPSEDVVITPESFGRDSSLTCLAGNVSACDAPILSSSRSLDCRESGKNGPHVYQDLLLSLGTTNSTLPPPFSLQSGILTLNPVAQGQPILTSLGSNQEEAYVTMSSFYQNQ
Nature of the test: flow cytometry blocking assay: binding of hIL-7-his (0.1 ug/ml) to CHOK1-human IL-7Ra cells in the presence of the antibody, anti-His Alexa Fluor 488, MFI (right panel).

Test [3] deals with T3, Human his-tag IL-7Ra protein (human, UniProt P16871 21-239).
T3 construct: Construct not described; Position of the tag unknown; also called IL-7Ra (Biacore analyte); not shown: his tag
T3 sequence: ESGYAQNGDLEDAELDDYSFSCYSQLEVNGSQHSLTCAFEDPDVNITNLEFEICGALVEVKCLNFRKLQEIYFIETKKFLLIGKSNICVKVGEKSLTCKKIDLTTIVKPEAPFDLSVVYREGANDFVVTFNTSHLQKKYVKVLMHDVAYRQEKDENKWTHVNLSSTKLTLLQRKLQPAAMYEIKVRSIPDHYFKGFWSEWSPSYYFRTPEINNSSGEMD
Nature of the test: SPR Biacore 8K, antibody Fc-captured, human his-tag IL-7Ra analyte, 1:1 model.

Test [4] concerns the target T4, cynomolgus Fc-tag IL-7Ra protein (cynomolgus, UniProt Q38IC7 21-240).
T4 construct: also called cynomolgus IL-7Ra protein; not shown: Fc tag
T4 sequence: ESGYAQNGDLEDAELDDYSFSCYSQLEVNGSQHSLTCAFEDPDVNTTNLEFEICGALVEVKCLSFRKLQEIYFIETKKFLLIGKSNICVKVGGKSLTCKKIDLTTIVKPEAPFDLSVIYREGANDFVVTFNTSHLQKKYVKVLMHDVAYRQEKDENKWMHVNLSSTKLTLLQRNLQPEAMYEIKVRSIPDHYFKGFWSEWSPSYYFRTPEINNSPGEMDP
As to the kind of experiment: ELISA, cynomolgus Fc-tag IL-7Ra protein, HRP-labelled secondary antibody, OD 450 (right panel).

Test [5] addresses T5, cynomolgus IL-7Ra expressed on CHOK1-cyno IL-7Ra cells (cynomolgus, UniProt Q38IC7 21-459).
T5 sequence: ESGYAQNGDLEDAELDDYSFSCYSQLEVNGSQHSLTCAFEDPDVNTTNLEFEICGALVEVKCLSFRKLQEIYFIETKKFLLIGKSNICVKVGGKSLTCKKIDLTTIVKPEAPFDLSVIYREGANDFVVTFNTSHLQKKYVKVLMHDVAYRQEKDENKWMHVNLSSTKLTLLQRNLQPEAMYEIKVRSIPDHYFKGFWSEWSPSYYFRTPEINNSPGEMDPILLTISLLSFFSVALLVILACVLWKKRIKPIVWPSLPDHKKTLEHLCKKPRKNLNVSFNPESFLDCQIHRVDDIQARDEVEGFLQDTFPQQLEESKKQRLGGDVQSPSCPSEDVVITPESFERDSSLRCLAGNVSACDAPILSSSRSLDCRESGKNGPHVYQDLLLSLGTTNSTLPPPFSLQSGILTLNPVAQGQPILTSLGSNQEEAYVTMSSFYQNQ
As to the kind of experiment: flow cytometry, CHOK1-cyno IL-7Ra cells.

The target of test [6] is T5, cynomolgus IL-7Ra expressed on …. As to the kind of experiment: flow cytometry on CHOK1-cyno IL-7Ra cells, MFI (upper right panel).
The target is the same in test [7]. The test is described as above. This is another data set of the same source.
Test [8] has as its target T2, human IL-7Ra expressed on CHOK1-human …. As to the kind of experiment: flow cytometry on CHOK1-human IL-7Ra cells, MFI (upper left panel).
Test [9] shares this target. As to the kind of experiment: flow cytometry, CHOK1-human IL-7Ra cells.
Test [10] has the same target. Nature of the test: flow cytometry on CHOK1-human IL-7Ra cells, MFI (upper left panel). This is another data set of the same source.
The target is the same in test [11]. As to the kind of experiment: flow cytometry blocking assay: binding of hIL-7-his to CHOK1-human IL-7Ra cells in the presence of the antibody, MFI (right panel).

B1: OSE127 (Tab2) (antibody, human IgG4 S228P, kappa, V domains shown)
VH: QVQLVESGGGLVKPGGSLRLSCAVSGFTLSDYYMAWIRQAPGKGLEWVSTISASGLRTYYPDSVKGRFTISRDNAKNSLYLQMNSLRAEDTAVYYCARPLSAHYGFNYFDYWGQGTLVTVSS
VL: DIQMTQSPSSLSASVGDRVTITCRTSEDIYQGLAWYQQKPGKAPKLLLYSANTLHIGVPSRFSGSGSGTDYTLTISSLQPEDFATYYCQQYYDYPLAFGGGTKVEIKR
notes: also called benchmark antibody OSE127
As for B1, the “EC50 (read off the curve)” value is around 0.02 µg/mL in test [1]; around 0.03 µg/mL in [4]; around 0.1 µg/mL in test [6]; around 0.3 µg/mL in [7]; around 0.2 µg/mL in test [8]; around 0.08 µg/mL in test [10]. In addition, the “IC50 (read off the curve)” value in test [2] is around 0.07 µg/mL. In addition, binding in test [3] was put at a Kd of 0.385 nM. In test [3], the koff is 0.000252 s⁻¹. This molecule gave a kon in test [3] of 656000 M⁻¹ s⁻¹. Also, the EC50 in test [5] came out at 0.51 µg/mL; in test [9] it was 0.387 µg/mL. Further, the “Top (MFI)” value worked out at 19100 MFI in [5] and 24300 MFI in test [9].

B2: HuAb013 (antibody, V domains shown)
VH: QVQLVQSGAEVKKPGASVKVSCKASGYRFTDYELHWVRQAPGQGLEWMGGIDPKTGGTAYNQKFKGKVTLTSDRSTSTVYMELSSLRSEDTAVYYCARSGGRWYFDVWGQGTTVTVSS
VL: DIVLTQSPASLAVSPGQRATITCRTSESVSIHLLHLMHWYQQKPGQPPKLLIYGASNLESGVPARFSGSGSGTDFTLTINPVEAEDTANYYCQQSIKDPYTFGGGTKVEIK
notes: Humanized version of cmAb011; also called humanized VL1 / humanized VH4
Take B2: in test [3], the Kd was determined as 0.18 nM, the koff was found to be 0.000292 s⁻¹ and the kon is 1.63e+06 M⁻¹ s⁻¹. Also, in test [5], the EC50 came to 0.0325 µg/mL and the “Top (MFI)” value was 16300 MFI. Also, in test [11], the “IC50 (read off the curve)” value was around 0.1 µg/mL. Moreover, in test [9], a half-maximal effect (EC50) was put at 0.0326 µg/mL and the “Top (MFI)” value stood at 24400 MFI.
